From paper doi:10.1101/2025.03.13.643145 (bioRxiv, 2025)
Positions of bridges follow the written chain, without caps; N, C: chain ends. No end group written: not given here.

What was measured:
Assay in all cases: ELISA
[1] = target: T1, CD81 EC2 domain (extracellular-2 domain of tetraspanin CD81, residues 113-201) (UniProt P60033 113-201)
T1 sequence: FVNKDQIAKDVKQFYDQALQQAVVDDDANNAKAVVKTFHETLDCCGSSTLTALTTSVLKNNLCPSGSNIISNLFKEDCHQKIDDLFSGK

[2] = target: T2, CD9 EC2 domain (extracellular-2 domain of tetraspanin CD9, residues 113-192) (UniProt P21926 113-192)
T2 sequence: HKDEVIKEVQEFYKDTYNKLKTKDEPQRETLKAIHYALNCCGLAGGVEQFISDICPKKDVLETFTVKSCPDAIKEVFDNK

[3] = target: T3, CD151 EC2 domain (extracellular-2 domain of tetraspanin CD151, residues 113-221) (UniProt P48509 113-221)
T3 sequence: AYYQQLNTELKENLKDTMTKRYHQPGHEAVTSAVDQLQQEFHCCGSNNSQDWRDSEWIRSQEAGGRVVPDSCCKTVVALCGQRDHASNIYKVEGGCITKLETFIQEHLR

Measured: binding result

B1: disulfide-linked cyclic site 2 peptide of integrin β3 (GST fusion protein) (peptide)
peptide: CRLAGIVQPNDGQSHVGSDNHYSASTTMC
modifications: disulfide 1-29; also: GST fusion protein
binds: [1] | [2] | [3]
